Test results reported in the supplement of paper PMC11780869.

Test system: Bacillus subtilis
Test: cleaved RNA product abundance (RNA/gDNA barcode ratio) relative to median wild-type variant (ratio to wild type); higher = more accumulation of the downstream cleavage product
Settings: cleavage site: cggR-gapA (positions -7 to +36 mutated)
Method: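 MPRA in B. subtilis. Mutagenized RNase Y cleavage-site regions (9% mutation rate) were inserted into a barcoded reporter mRNA (truncated aprE or tetM). Cells were grown in LB at 37°C to OD600 0.3. The cleaved RNA isoform was gel-purified and its barcodes counted; the RNA:gDNA barcode ratio was normalised to the median wild-type variant, and the median over barcodes is reported per variant. The printed sequence is the variable window only; the reporter flanks are not printed.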

[1] = experiment (reporter, strain, medium): exp 2b: truncated aprE reporter, strain BJT200
[2] = experiment (reporter, strain, medium): exp 4a: truncated aprE reporter, strain BJT201 with 2% xylose (RNase J1 expressed)
[3] = experiment (reporter, strain, medium): exp 6: tetM reporter, strain 168

| Sequence | cleaved RNA product abundance [1] | cleaved RNA product abundance [2] | cleaved RNA product abundance [3] |
| --- | --- | --- | --- |
| ACAGACGAAGGAGCCGCAAAGAAGATATTAAGGCATGAATAATCCCTCAATATAAATATCTCTCACTTATTTAAA | 0.088 | 0.17 |  |
| ACAGACGAAGGAGCCGCAAAGAAGATATTAAGGGAAGAATAATCCCTCAATATAAATATCTCTCACTTATTTAAA |  | 1 |  |
| ACAGACGAAGGAGCCGCAAAGAAGATATTAAGGGAGGAATAATCCCTCAATATAAATATCTCTCACTTATTTAAA |  | 0.643 |  |
| ACAGACGAAGGAGCCGCAAAGAAGATATTAAGGGATAAATAATCCCTCAATATAAATATCTCTCACTTATTTAAA |  | 0.78 | 0.468 |
| ACAGACGAAGGAGCCGCAAAGAAGATATTAAGGGATCAATAATCCCTCAATATAAATATCTCTCACTTATTTAAA | 0.501 | 0.815 |  |
| ACAGACGAAGGAGCCGCAAAGAAGATATTAAGGGATGAAAAATCCCTCAATATAAATATCTCTCACTTATTTAAA |  | 0.376 |  |
| ACAGACGAAGGAGCCGCAAAGAAGATATTAAGGGATGAACAATCCCTCAATATAAATATCTCTCACTTATTTAAA |  | 0.647 |  |
| ACAGACGAAGGAGCCGCAAAGAAGATATTAAGGGATGAATAAACCCTCAATATAAATATCTCTCACTTATTTAAA |  | 0.574 |  |
| ACAGACGAAGGAGCCGCAAAGAAGATATTAAGGGATGAATAAGCCCTCAATATAAATATCTCTCACTTATTTAAA |  | 0.432 |  |
| ACAGACGAAGGAGCCGCAAAGAAGATATTAAGGGATGAATAATACCTCAATATAAATATCTCTCACTTATTTAAA | 0.162 | 0.237 |  |
| ACAGACGAAGGAGCCGCAAAGAAGATATTAAGGGATGAATAATCACTCAATATAAATATCTCTCACTTATTTAAA | 0.145 | 0.143 |  |
| ACAGACGAAGGAGCCGCAAAGAAGATATTAAGGGATGAATAATCCATCAATATAAATATCTCTCACTTATTTAAA |  | 0.207 |  |
| ACAGACGAAGGAGCCGCAAAGAAGATATTAAGGGATGAATAATCCCACAATATAAATATCTCTCACTTATTTAAA |  | 0.311 |  |
| ACAGACGAAGGAGCCGCAAAGAAGATATTAAGGGATGAATAATCCCCCAATATAAATATCTCTCACTTATTTAAA |  | 0.32 |  |
| ACAGACGAAGGAGCCGCAAAGAAGATATTAAGGGATGAATAATCCCTAAATATAAATATCTCTCACTTATTTAAA | 0.702 | 0.665 | 0.475 |
| ACAGACGAAGGAGCCGCAAAGAAGATATTAAGGGATGAATAATCCCTCAAAATAAATATCTCTCACTTATTTAAA | 0.15 | 0.205 |  |
| ACAGACGAAGGAGCCGCAAAGAAGATATTAAGGGATGAATAATCCCTCAACATAAATATCTCTCACTTATTTAAA | 0.131 | 0.157 |  |
| ACAGACGAAGGAGCCGCAAAGAAGATATTAAGGGATGAATAATCCCTCAATAAAAATATCTCTCACTTATTTAAA | 0.142 |  |  |
| ACAGACGAAGGAGCCGCAAAGAAGATATTAAGGGATGAATAATCCCTCAATATAAAAATCTCTCACTTATTTAAA |  | 0.576 |  |
| ACAGACGAAGGAGCCGCAAAGAAGATATTAAGGGATGAATAATCCCTCAATATAAAGATCTCTCACTTATTTAAA |  | 0.559 |  |
| ACAGACGAAGGAGCCGCAAAGAAGATATTAAGGGATGAATAATCCCTCAATATAAATAACTCTCACTTATTTAAA |  | 1.07 |  |
| ACAGACGAAGGAGCCGCAAAGAAGATATTAAGGGATGAATAATCCCTCAATATAAATATCTCTCACTTATTTAAA | 0.68 | 0.751 | 0.612 |
| ACAGACGAAGGAGCCGCAAAGAAGATATTAAGGGATGAATAATCCCTCAATATAAATGTCTCTCACTTATTTAAA | 0.338 | 0.393 |  |
| ACAGACGAAGGAGCCGCAAAGAAGATATTAAGGGATGAATAATCCCTCAATTTAAATATCTCTCACTTATTTAAA | 0.157 |  |  |
| ACAGACGAAGGAGCCGCAAAGAAGATATTAAGGGATGAATAATCCCTCACTATAAATATCTCTCACTTATTTAAA | 0.149 |  |  |
| ACAGACGAAGGAGCCGCAAAGAAGATATTAAGGGATGAATAATCCCTCTATATAAATATCTCTCACTTATTTAAA | 0.362 | 0.406 |  |
| ACAGACGAAGGAGCCGCAAAGAAGATATTAAGGGATGAATAATCCCTGAATATAAATATCTCTCACTTATTTAAA |  | 0.583 |  |
| ACAGACGAAGGAGCCGCAAAGAAGATATTAAGGGATGAATAATCCCTTAATATAAATATCTCTCACTTATTTAAA |  | 0.192 |  |
